The results in this text go back to the supplement of paper PMC5998384.

Data set [1] relates to HeLa Kyoto. As to the kind of experiment: solubility in G1/S (NP-40 vs SDS abundance) (log2 ratio); higher = more soluble. To be noted: cell cycle stage: G1/S.
Data set [2] has as its system HeLa Kyoto. As to the kind of experiment: solubility change mitosis vs G1/S (difference of NP-40 vs SDS log2 ratios) (log2 ratio difference); higher = more soluble in mitosis.
Data set [3] relates to HeLa Kyoto. As to the kind of experiment: thermal stability score vs G1/S (z-score of summed log2 fold changes over temperatures); higher = more thermally stable than in G1/S.
Setting [4] is: cell cycle stage: early G1 (4.5 h after nocodazole release).
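Throughout, for solubility change mitosis vs G1/S (difference of NP-40 vs SDS log2 ratios): synchronized HeLa Kyoto cells (double thymidine block for G1/S, nocodazole release for mitosis), protein amounts in NP-40 versus SDS lysates quantified by mass spectrometry, three biological replicates.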
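Throughout, for solubility in G1/S (NP-40 vs SDS abundance): HeLa Kyoto cells arrested at G1/S by double thymidine block, proteins quantified by TMT10plex mass spectrometry in mild NP-40 versus SDS extracts, three biological replicates.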
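Throughout, for thermal stability score vs G1/S (z-score of summed log2 fold changes over temperatures): synchronized HeLa Kyoto cells, proteins quantified by TMT10plex mass spectrometry, three biological replicates, mitosis taken 0.5 h after nocodazole release, G1/S directly after double thymidine block.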

In the case of “MLVGQGAGLLGPAVVTAAVVLLLSGVGPAHGSEDIVVGCGGFVKSDVEINYSLIEIKLYTKHGTLKYQTDCAPNNGYFMIPLYDKGDFILKIEPPLGWSFEPTTVELHVDGVSDICTKGGDINFVFTGFSVNGKVLSKGQPLGPAGVQVSLRNTGTEAKIQSTVTQPGGKFAFFKVLPGDYEILATHPTWALKEASTTVRVTNSNANAASPLIVAGYNVSGSVRSDGEPMKGVKFLLFSSLVTKEDVLGCNVSPVPGFQPQDESLVYLCYTVSREDGSFSFYSLPSGGYTVIPFYRGERITFDVAPSRLDFTVEHDSLKIEPVFHVMGFSVTGRVLNGPEGDGVPEAVVTLNNQIKVKTKADGSFRLENITTGTYTIHAQKEHLYFETVTIKIAPNTPQLADIVATGFSVCGRISIIRFPDTVKQMNKYKVVLSSQDKDKSLVTVETDAHGSFCFKAKPGTYKVQVMVPEAETRAGLTLKPQTFPLTVTDRPVMDVAFVQFLASVSGKVSCLDTCGDLLVTLQSLSRQGEKRSLQLSGKVNAMTFTFDNVLPGKYKISIMHEDWCWKNKSLEVEVLEDDVSAVEFRQTGYMLRCSLSHAITLEFYQDGNGRENVGIYNLSKGVNRFCLSKPGVYKVTPRSCHRFEQAFYTYDTSSPSILTLTAIRHHVLGTITTDKMMDVTVTIKSSIDSEPALVLGPLKSVQELRREQQLAEIEARRQEREKNGNEEGEERMTKPPVQEMVDELQGPFSYDFSYWARSGEKITVTPSSKELLFYPPSMEAVVSGESCPGKLIEIHGKAGLFLEGQIHPELEGVEIVISEKGASSPLITVFTDDKGAYSVGPLHSDLEYTVTSQKEGYVLTAVEGTIGDFKAYALAGVSFEIKAEDDQPLPGVLLSLSGGLFRSNLLTQDNGILTFSNLSPGQYYFKPMMKEFRFEPSSQMIEVQEGQNLKITITGYRTAYSCYGTVSSLNGEPEQGVAMEAVGQNDCSIYGEDTVTDEEGKFRLRGLLPGCVYHVQLKAEGNDHIERALPHHRVIEVGNNDIDDVNIIVFRQINQFDLSGNVITSSEYLPTLWVKLYKSENLDNPIQTVSLGQSLFFHFPPLLRDGENYVVLLDSTLPRSQYDYILPQVSFTAVGYHKHITLIFNPTRKLPEQDIAQGSYIALPLTLLVLLAGYNHDKLIPLLLQLTSRLQGVGALGQAASDNSGPEDAKRQAKKQKTRRTLRLQEEFQLMWCLVPWRGTLGIHLFSSLPFASEILLETTATCIHY [NOMO2]”, in the data set with HeLa Kyoto [1], the “solubility in G1/S (log2)” value is -0.0617. In addition, in the data set with HeLa Kyoto [2], the “solubility change mitosis (log2)” value was -0.136. In addition, the thermal stability score with HeLa Kyoto [3] (setting [4]) is -0.17; with HeLa Kyoto [3] (cell cycle stage: mitosis), -0.401.
On the same counts, the results for “MNLAEICDNAKKGREYALLGNYDSSMVYYQGVMQQIQRHCQSVRDPAIKGKWQQVRQELLEEYEQVKSIVSTLESFKIDKPPDFPVSCQDEPFRDPAVWPPPVPAEHRAPPQIRRPNREVRPLRKEMAGVGARGPVGRAHPISKSEKPSTSRDKDYRARGRDDKGRKNMQDGASDGEMPKFDGAGYDKDLVEALERDIVSRNPSIHWDDIADLEEAKKLLREAVVLPMWMPDFFKGIRRPWKGVLMVGPPGTGKTMLAKAVATECGTTFFNVSSSTLTSKYRGESEKLVRLLFEMARFYAPTTIFIDEIDSICSRRGTSDEHEASRRVKSELLIQMDGVGGALENDDPSKMVMVLAATNFPWDIDEALRRRLEKRIYIPLPTAKGRAELLKINLREVELDPDIQLEDIAEKIEGYSGADITNVCRDASLMAMRRRINGLSPEEIRALSKEELQMPVTKGDFELALKKIAKSVSAADLEKYEKWMVEFGSA [KATNAL1]” are 0.0559, 0.119, 1.07 and 0.457.
The matching figures for “MPEESSPRRTPQSIPYQDLPHLVNADGQYLFCRYWKPTGTPKALIFVSHGAGEHSGRYEELARMLMGLDLLVFAHDHVGHGQSEGERMVVSDFHVFVRDVLQHVDSMQKDYPGLPVFLLGHSMGGAIAILTAAERPGHFAGMVLISPLVLANPESATTFKVLAAKVLNLVLPNLSLGPIDSSVLSRNKTEVDIYNSDPLICRAGLKVCFGIQLLNAVSRVERALPKLTVPFLLLQGSADRLCDSKGAYLLMELAKSQDKTLKIYEGAYHVLHKELPEVTNSVFHEINMWVSQRTATAGTASPP [MGLL]”: 0.347, -0.16, 0.0154 and -0.539.
On the same counts, the results for “MPLELTQSRVQKIWVPVDHRPSLPRSCGPKLTNSPTVIVMVGLPARGKTYISKKLTRYLNWIGVPTKVFNVGEYRREAVKQYSSYNFFRPDNEEAMKVRKQCALAALRDVKSYLAKEGGQIAVFDATNTTRERRHMILHFAKENDFKAFFIESVCDDPTVVASNIMEVKISSPDYKDCNSAEAMDDFMKRISCYEASYQPLDPDKCDRDLSLIKVIDVGRRFLVNRVQDHIQSRIVYYLMNIHVQPRTIYLCRHGENEHNLQGRIGGDSGLSSRGKKFASALSKFVEEQNLKDLRVWTSQLKSTIQTAEALRLPYEQWKALNEIDAGVCEELTYEEIRDTYPEEYALREQDKYYYRYPTGESYQDLVQRLEPVIMELERQENVLVICHQAVLRCLLAYFLDKSAEEMPYLKCPLHTVLKLTPVAYGCRVESIYLNVESVCTHRERSEDAKKGPNPLMRRNSVTPLASPEPTKKPRINSFEEHVASTSAALPSCLPPEVPTQLPGQNMKGSRSSADSSRKH [PFKFB3]” are 0.239, -0.103, 2.73 and 0.713.
For “MPPKTPRKTAATAAAAAAEPPAPPPPPPPEEDPEQDSGPEDLPLVRLEFEETEEPDFTALCQKLKIPDHVRERAWLTWEKVSSVDGVLGGYIQKKKELWGICIFIAAVDLDEMSFTFTELQKNIEISVHKFFNLLKEIDTSTKVDNAMSRLLKKYDVLFALFSKLERTCELIYLTQPSSSISTEINSALVLKVSWITFLLAKGEVLQMEDDLVISFQLMLCVLDYFIKLSPPMLLKEPYKTAVIPINGSPRTPRRGQNRSARIAKQLENDTRIIEVLCKEHECNIDEVKNVYFKNFIPFMNSLGLVTSNGLPEVENLSKRYEEIYLKNKDLDARLFLDHDKTLQTDSIDSFETQRTPRKSNLDEEVNVIPPHTPVRTVMNTIQQLMMILNSASDQPSENLISYFNNCTVNPKESILKRVKDIGYIFKEKFAKAVGQGCVEIGSQRYKLGVRLYYRVMESMLKSEEERLSIQNFSKLLNDNIFHMSLLACALEVVMATYSRSTSQNLDSGTDLSFPWILNVLNLKAFDFYKVIESFIKAEGNLTREMIKHLERCEHRIMESLAWLSDSPLFDLIKQSKDREGPTDHLESACPLNLPLQNNHTAADMYLSPVRSPKKKGSTTRVNSTANAETQATSAFQTQKPLKSTSLSLFYKKVYRLAYLRLNTLCERLLSEHPELEHIIWTLFQHTLQNEYELMRDRHLDQIMMCSMYGICKVKNIDLKFKIIVTAYKDLPHAVQETFKRVLIKEEEYDSIIVFYNSVFMQRLKTNILQYASTRPPTLSPIPHIPRSPYKFPSSPLRIPGGNIYISPLKSPYKISEGLPTPTKMTPRSRILVSIGESFGTSEKFQKINQMVCNSDRVLKRSAEGSNPPKPLKKLRFDIEGSDEADGSKHLPGESKFQQKLAEMTSTRTRMQKQKMNDSMDTSNKEEK [RB1]”, the “solubility in G1/S (log2)” value in the data set with HeLa Kyoto [1] stood at 0.147. In the data set on HeLa Kyoto [2], the “solubility change mitosis (log2)” value was -0.0546. Also, the thermal stability score in the data set on HeLa Kyoto [3] (setting [4]) amounted to 0.441; in the data set with HeLa Kyoto [3] (cell cycle stage: mitosis) it was 2.18.
On to “MQRRRRPPPPTSRLPEGCGGGGGGSEEVEVQFSAGRWGSAAAVSAAAAAATRSTEEEEERLEREHFWKIINAFRYYGTSMHERVNRTERQFRSLPANQQKLLPQFLLHLDKIRKCIDHNQEILLTIVNDCIHMFENKEYGEDGNGKIMPASTFDMDKLKSTLKQFVRDWSETGKAERDACYQPIIKEILKNFPKERWDPSKVNILVPGAGLGRLAWEIAMLGYACQGNEWSFFMLFSSNFVLNRCSEINKYKLYPWIHQFSNNRRSADQIRPIFFPDVDPHSLPPGSNFSMTAGDFQEIYSECNTWDCIATCFFIDTAHNVIDYIDTIWKILKPGGIWINLGPLLYHFENLANELSIELSYEDIKNVVLQYGFKVEVEKESVLSTYTVNDLSMMKYYYECVLFVVRKPQ [CARNMT1]”, for which the “solubility in G1/S (log2)” value in the data set on HeLa Kyoto [1] was -0.164. Moreover, the “solubility change mitosis (log2)” value with HeLa Kyoto [2] was -0.117. The thermal stability score came out at 1.2 with HeLa Kyoto [3] (setting [4]) and 1.42 with HeLa Kyoto [3] (cell cycle stage: mitosis).
Take “MQTSEREGSGPELSPSVMPEAPLESPPFPTKSPAFDLFNLVLSYKRLEIYLEPLKDAGDGVRYLLRWQMPLCSLLTCLGLNVLFLTLNEGAWYSVGALMISVPALLGYLQEVCRARLPDSELMRRKYHSVRQEDLQRGRLSRPEAVAEVKSFLIQLEAFLSRLCCTCEAAYRVLHWENPVVSSQFYGALLGTVCMLYLLPLCWVLTLLNSTLFLGNVEFFRVVSEYRASLQQRMNPKQEEHAFESPPPPDVGGKDGLMDSTPALTPTEDLTPGSVEEAEEAEPDEEFKDAIEETHLVVLEDDEGAPCPAEDELALQDNGFLSKNEVLRSKVSRLTERLRKRYPTNNFGNCTGCSATFSVLKKRRSCSNCGNSFCSRCCSFKVPKSSMGATAPEAQRETVFVCASCNQTLSK [ZFYVE27]”: the “solubility in G1/S (log2)” value with HeLa Kyoto [1] was -0.196. For the same sequence, in the data set on HeLa Kyoto [2], the “solubility change mitosis (log2)” value is -0.198. The thermal stability score is 0.202 in the data set on HeLa Kyoto [3] (setting [4]) and -1.24 with HeLa Kyoto [3] (cell cycle stage: mitosis).
On the same counts, the results for “MRGKTFRFEMQRDLVSFPLSPAVRVKLVSAGFQTAEELLEVKPSELSKEVGISKAEALETLQIIRRECLTNKPRYAGTSESHKKCTALELLEQEHTQGFIITFCSALDDILGGGVPLMKTTEICGAPGVGKTQLCMQLAVDVQIPECFGGVAGEAVFIDTEGSFMVDRVVDLATACIQHLQLIAEKHKGEEHRKALEDFTLDNILSHIYYFRCRDYTELLAQVYLLPDFLSEHSKVRLVIVDGIAFPFRHDLDDLSLRTRLLNGLAQQMISLANNHRLAVILTNQMTTKIDRNQALLVPALGESWGHAATIRLIFHWDRKQRLATLYKSPSQKECTVLFQIKPQGFRDTVVTSACSLQTEGSLSTRKRSRDPEEEL [RAD51C]” are 0.00866, 0.0331, -0.288 and -0.541.
On the same counts, the results for “MSENLDKSNVNEAGKSKSNDSEEGLEDAVEGADEALQKAIKSDSSSPQRVQRPHSSPPRFVTVEELLETARGVTNMALAHEIVVNGDFQIKPVELPENSLKKRVKEIVHKAFWDCLSVQLSEDPPAYDHAIKLVGEIKETLLSFLLPGHTRLRNQITEVLDLDLIKQEAENGALDISKLAEFIIGMMGTLCAPARDEEVKKLKDIKEIVPLFREIFSVLDLMKVDMANFAISSIRPHLMQQSVEYERKKFQEILERQPNSLDFVTQWLEEASEDLMTQKYKHALPVGGMAAGSGDMPRLSPVAVQNYAYLKLLKWDHLQRPFPETVLMDQSRFHELQLQLEQLTILGAVLLVTFSMAAPGISSQADFAEKLKMIVKILLTDMHLPSFHLKDVLTTIGEKVCLEVSSCLSLCGSSPFTTDKETVLKGQIQAVASPDDPIRRIMESRILTFLETYLASGHQKPLPTVPGGLSPVQRELEEVAIKFARLVNYNKMVFCPYYDAILSKILVRS [TCP11L1]” are 0.346, 0.1, 1.37 and 1.4.
